Consider one substance from article PMC270082.

Broadly, the stoichiometry N is a count of units in the complex or per binding partner. As a reminder, the Kd is the equilibrium constant for the complex coming apart. A higher Kd goes with weaker binding. By koff is commonly meant a measure of how fast the partners let go of each other. Higher therefore signals a short-lived complex. The kon is the second-order rate constant of association.

For experiment [1], the target named is PcrG (residues 1-98) (P. aeruginosa strain CHA). Briefly: native MS.
The target in experiment [2] is PcrG (1-74) (P. aeruginosa strain CHA). In words: SPR. A general note: Surface plasmon resonance follows binding to a sensor surface in real time, without labels.
The target in experiment [3] is PcrG (residues 1-98) (P. aeruginosa strain CHA). In words: SPR.

“PcrV (from UniProt G3XD49 1-294) (natural protein)” displayed a stoichiometry N in experiment [1] of 1. Further, in experiment [2], the Kd came to 15.6 nM, the koff came to 0.00491 s⁻¹ and the kon is 316000 M⁻¹ s⁻¹. In experiment [3], this substance showed a Kd of 15.6 nM, a koff of 0.00694 s⁻¹ and a kon of 445000 M⁻¹ s⁻¹.
